PMC9535869, “A novel nuclear receptor subfamily enlightens the origin of heterodimerization”

B1: DR4 (dsDNA)
DNA 1: ATTTGAGGTCACAGGAGGTCACACAG
DNA 2: CTGTGTGACCTCCTGTGACCTCAAAT
B2: DR1 (dsDNA)
DNA 1: GATTTGAGGTCAGAGGTCACACAGTT
DNA 2: AACTGTGTGACCTCTGACCTCAAATC
B3: DR0 (dsDNA)
DNA 1: GATTTGAGGTCAAGGTCACACAGTTA
DNA 2: TAACTGTGTGACCTTGACCTCAAATC
B4: IR3 (dsDNA)
DNA 1: GATTTGAGGTCACAGTGACCTCACAG
DNA 2: CTGTGAGGTCACTGTGACCTCAAATC

Experiments:
Conditions in all cases: protein: recombinant; tags: His6 tag, cleaved by thrombin; chain copies: 2
[1] = target: T1, NR7 deltaA/B (called full-length NR7), homodimer (Branchiostoma lanceolatum, UniProt A0A6B9UN24 30-389); assay: SEC-nMS; Oligos annealed in 10 mM Tris-HCl pH 8.0, 100 mM NaCl, 0.1 mM EDTA; protein dimer:DNA 1:1.2; native 8% PAGE in 60 mM Tris/40 mM CAPS pH 9.4, pre-run at 4 C; SEC-nMS buffer not given in the material
T1 sequence (A0A6B9UN24 entry or part of it mutant): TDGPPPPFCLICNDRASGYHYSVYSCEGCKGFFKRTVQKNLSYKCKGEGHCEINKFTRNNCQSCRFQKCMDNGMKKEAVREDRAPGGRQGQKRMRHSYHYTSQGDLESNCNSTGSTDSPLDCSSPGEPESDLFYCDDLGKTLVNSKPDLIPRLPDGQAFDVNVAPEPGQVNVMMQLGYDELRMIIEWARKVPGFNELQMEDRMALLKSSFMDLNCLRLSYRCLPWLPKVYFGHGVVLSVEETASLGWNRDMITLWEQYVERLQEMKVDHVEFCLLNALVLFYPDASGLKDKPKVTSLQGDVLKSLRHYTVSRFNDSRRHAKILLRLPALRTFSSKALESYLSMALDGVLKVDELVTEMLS

[2] = target: T1, NR7 deltaA/B (called full-length NR7), …; assay: SEC-nMS; homodimer on DNA, 102405 Da; Oligos annealed in 10 mM Tris-HCl pH 8.0, 100 mM NaCl, 0.1 mM EDTA; protein dimer:DNA 1:1.2; native 8% PAGE in 60 mM Tris/40 mM CAPS pH 9.4, pre-run at 4 C; SEC-nMS buffer not given in the material
[3] = target: T1, NR7 deltaA/B (called full-length NR7), …; assay: SEC-nMS; NR7 and RXR mixture; Oligos annealed in 10 mM Tris-HCl pH 8.0, 100 mM NaCl, 0.1 mM EDTA; protein dimer:DNA 1:1.2; native 8% PAGE in 60 mM Tris/40 mM CAPS pH 9.4, pre-run at 4 C; SEC-nMS buffer not given in the material

Binder	binding result [1]	other results
B1	binds	–
B2	binds	–
B3	–	binding result [2]: binds
B4	–	binding result [3]: binds
